Experimental data taken from paper PMC6862464, “Structural Insights into AQP2 Targeting to Multivesicular Bodies” (International Journal of Molecular Sciences, 2019).
Substitutions are numbered along the chain they refer to.

Key:
[1] = target: T1, full-length human LIP5 K71A (human, UniProt Q9NP79 1-307, K71A); experiment: other fluorescence titration; Alexa 488-labeled, dephosphorylated AQP2 (around 1 uM) in the cuvette, titrated with unlabeled LIP5; total fluorescence; 20 mM Tris-HCl pH 8, 300 mM NaCl, 0.2% OGNG; triplicate titrations; details: both partners purified
T1 construct: LIP5, human, full length, point mutant; spacer before the TEV site and His tag, as in m2; Mutant of m2; dimer as said of full-length LIP5 (cited); source: E. coli BL21*(DE3), purified (HisTrap, SEC)
T1 sequence: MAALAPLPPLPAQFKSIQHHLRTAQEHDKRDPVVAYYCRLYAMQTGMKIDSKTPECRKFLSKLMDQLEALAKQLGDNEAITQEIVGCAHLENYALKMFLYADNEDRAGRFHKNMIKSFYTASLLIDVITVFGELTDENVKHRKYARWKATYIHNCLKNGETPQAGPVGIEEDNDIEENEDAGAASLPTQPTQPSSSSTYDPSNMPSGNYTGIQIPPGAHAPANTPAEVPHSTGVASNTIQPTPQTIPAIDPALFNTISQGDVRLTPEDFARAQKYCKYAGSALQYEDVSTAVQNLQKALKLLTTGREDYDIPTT

[2] = target: T2, full-length human LIP5 M64A (human, UniProt Q9NP79 1-307, M64A); experiment: as above; details: both partners purified
T2 construct: LIP5, human, full length, point mutant; spacer before the TEV site and His tag, as in m2; Mutant of m2; dimer as said of full-length LIP5 (cited); source: E. coli BL21*(DE3), purified (HisTrap, SEC)
T2 sequence: T1 sequence with M64A, A71K

Kd [1]: 137 nM | Kd [2]: 271 nM
B1: human aquaporin 2 (AQP2), wild-type (natural protein, UniProt P41181 1-271, looked up)
chain: MWELRSIAFSRAVFAEFLATLLFVFFGLGSALNWPQALPSVLQIAMAFGLGIGTLVQALGHISGAHINPAVTVACLVGCHVSVLRAAFYVAAQLLGAVAGAALLHEITPADIRGDLAVNALSNSTTAGQAVTVELFLTLQLVLCIFASTDERRGENPGTPALSIGFSVALGHLLGIHYTGCSMNPARSLAPAVVTGKFDDHWVFWIGPLVGAILGSLLYNYVLFPPAKSLSERLAVLKGLEPDTDWEEREVRRRQSVELHSPQSLPRGTKA
modifications: cysteine residues labeled with C5 maleimide Alexa 488; dephosphorylated with alkaline phosphatase before labeling
notes: concentrations and molar ratios seem to count monomers; His-tag is called uncleavable; also called WT; labeled AQP2; source: Pichia pastoris, purified (HisTrap, SEC) in OGNG; not shown: His-tag, N-terminal, kept
